Test results as given in PMC3007124 (Nature cell biology, 2010).

T1: EYFP-LacI-PSP1 (UniProt Q8R326 1-523)
T1 sequence: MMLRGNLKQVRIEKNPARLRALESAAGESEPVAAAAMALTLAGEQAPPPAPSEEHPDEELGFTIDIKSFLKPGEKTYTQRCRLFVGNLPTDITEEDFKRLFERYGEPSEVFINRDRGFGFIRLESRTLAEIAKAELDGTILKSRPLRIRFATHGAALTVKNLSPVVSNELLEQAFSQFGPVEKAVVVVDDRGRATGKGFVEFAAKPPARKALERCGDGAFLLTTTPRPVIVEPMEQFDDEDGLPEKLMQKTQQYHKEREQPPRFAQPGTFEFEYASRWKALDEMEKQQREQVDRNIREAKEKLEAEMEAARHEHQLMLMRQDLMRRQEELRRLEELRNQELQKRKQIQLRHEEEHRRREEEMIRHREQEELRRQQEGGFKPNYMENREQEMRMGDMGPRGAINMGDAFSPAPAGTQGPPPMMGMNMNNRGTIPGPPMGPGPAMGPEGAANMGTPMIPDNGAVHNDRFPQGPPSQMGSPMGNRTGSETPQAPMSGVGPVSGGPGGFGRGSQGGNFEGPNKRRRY

T2: EYFP-LacI-PSF (UniProt Q8VIJ6 1-699)
T2 sequence: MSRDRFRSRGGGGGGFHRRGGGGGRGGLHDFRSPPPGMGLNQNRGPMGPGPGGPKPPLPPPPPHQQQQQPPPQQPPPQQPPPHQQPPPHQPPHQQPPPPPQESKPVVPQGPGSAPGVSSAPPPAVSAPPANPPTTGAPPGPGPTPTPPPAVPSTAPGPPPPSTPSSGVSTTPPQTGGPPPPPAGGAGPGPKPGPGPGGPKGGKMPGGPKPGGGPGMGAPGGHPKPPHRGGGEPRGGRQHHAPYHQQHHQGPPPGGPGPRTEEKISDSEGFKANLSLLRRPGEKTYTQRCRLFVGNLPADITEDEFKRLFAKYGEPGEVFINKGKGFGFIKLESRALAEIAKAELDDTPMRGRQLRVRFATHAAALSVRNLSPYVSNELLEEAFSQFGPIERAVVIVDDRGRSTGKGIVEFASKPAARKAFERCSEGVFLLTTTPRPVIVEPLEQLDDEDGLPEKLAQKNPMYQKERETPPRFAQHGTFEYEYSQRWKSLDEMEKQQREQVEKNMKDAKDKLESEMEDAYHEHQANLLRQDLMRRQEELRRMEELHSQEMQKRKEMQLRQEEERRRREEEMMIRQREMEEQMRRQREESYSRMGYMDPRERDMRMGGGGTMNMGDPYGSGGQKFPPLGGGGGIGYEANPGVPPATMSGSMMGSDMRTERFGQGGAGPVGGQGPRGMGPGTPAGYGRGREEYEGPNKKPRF


Experiments:
EYFP-LacI-PSP1 = biological target: T1, EYFP-LacI-PSP1; assay: LacO/LacI tethering in cells, recruitment seen by fluorescence microscopy
EYFP-LacI-PSF = biological target: T2, EYFP-LacI-PSF; assay: as above

percent of cells with recruitment to the tethered protein (EYFP-LacI-PSP1)	percent of cells with recruitment to the tethered protein (EYFP-LacI-PSF)	Binder
87 % of the cells	–	mCherry-p54nrb (natural protein) MQSNKAFNLEKQNHTPRKHHQHHHQQHHQQQQQQQQQQPPPPIPANGQQASSQNEGLTIDLKNFRKPGEKTFTQRSRLFVGNLPPDITEEEMRKLFEKYGKAGEVFIHKDKGFGFIRLETRTLAEIAKVELDNMPLRGKQLRVRFACHSASLTVRNLPQYVSNELLEEAFSVFGQVERAVVIVDDRGRPSGKGIVEFSGKPAARKALDRCSEGSFLLTTFPRPVTVEPMDQLDDEEGLPEKLVIKNQQFHKEREQPPRFAQPGSFEYEYAMRWKALIEMEKQQQDQVDRNIKEAREKLEMEMEAARHEHQVMLMRQDLMRRQEELRRMEELHNQEVQKRKQLELRQEEERRRREEEMRRQQEEMMRRQQEGFKGTFPDAREQEIRMGQMAMGGAMGINNRGAMPPAPVPPGTPAPPGPATMMPDGTLGLTPPTTERFGQAATMEGIGAIGGTPPAFNRPAPGAEFAPNKRRRY
–	58 % of the cells	PSP2 (natural protein) MKIFVGNVDGADTTPEELAALFAPYGTVMSCAVMKQFAFVHMRENAGAVRAIEALHGHELRPGRALVVEMSRPRPLNTWKIFVGNVSAACTSQELRSLFERRGRVIECDVVKDYAFVHMEKEADAKAAIAQLNGKEVKGKRINVELSTKGQKKGPALAIQSGDKTKKPGAGDTAFPGTGGFSATFDYQQAFGNSTGGFDGQARQPTPPFFGRDRSPLRRSPPRASYVAPLTAQPATYRAQPSVSLGAAYRAQPSASLGVGYRTQPMAAQAASYRAQPSVSLGAPYRGQLASPSSQSAAASSLGPYGGVQPSASALSTYGGQAAAASSLNSYGAQGSSLASYGNQPSSYGAQAASSYGVRAAASSYNTQGAASSLGSYGAQAASYGAQSAASSLAYGAQAASYSAQPSASYSAQSAPYAAQQAASYSSQPAAYVAQPATAAAYASQPAAYAAQATTPMAGSYGAQPVVQTQLNSYGAQASIGLSGSYGAQSAAAATGSYGAAAAYGAQPSATLAAPYRTQSSASLAASYAAQQHPQAAASYRGQPGSAYDGTGQPSAAYLSMSQGAVANANSTPPPYERTRLSPPRASYDDPYKKAVAMSKRYGSDRRLAELSDYRRLSESQLSFRRSPTKSSLDYRRLPDAHSDYARYSGSYNDYLRAAQMHSGYQRRM
